The series concerns the molecule itself. As to the kind of experiment: SEC; analytical SEC on Superdex 200 10/300 GL; samples ~21 µM in 100 µl; 25 mM HEPES pH 7.5, 100 mM KCl, 50 mM NaCl, 1 mM TCEP, 1 mM MgCl2; molecular weights from a standard curve. For orientation: SEC sorts molecules by how far they enter the pores of the column.

B1: human methyltransferase-like protein 16 (METTL16), residues 1-562 (enzyme)
chain: SNAMALSKSMHARNRYKDKPPDFAYLASKYPDFKQHVQINLNGRVSLNFKDPEAVRALTCTLLREDFGLSIDIPLERLIPTVPLRLNYIHWVEDLIGHQDSDKSTLRRGIDIGTGASCIYPLLGATLNGWYFLATEVDDMCFNYAKKNVEQNNLSDLIKVVKVPQKTLLMDALKEESEIIYDFCMCNPPFFANQLEAKGVNSRNPRRPPPSSVNTGGITEIMAEGGELEFVKRIIHDSLQLKKRLRWYSCMLGKKCSLAPLKEELRIQGVPKVTYTEFCQGRTMRWALAWSFYDDVTVPSPPSKRRKLEKPRKPITFVVLASVMKELSLKASPLRSETAEGIVVVTTWIEKILTDLKVQHKRVPCGKEEVSLFLTAIENSWIHLRRKKRERVRQLREVPRAPEDVIQALEEKKPTPKESGNSQELARGPQERTPCGPALREGEAAAVEGPCPSQESLSQEENPEPTEDERSEEKGGVEVLESCQGSSNGAQDQEASEQFGSPVAERGKRLPGVAGQYLFKCLINVKKEVDDALVEMHWVEGQNRDLMNQLCTYIRNQIFRLVAVN
notes: Ser-Asn-Ala linker encoded in the pMCSG68 vector, between the TEV protease cleavage site and residue 1; METTL16, human, UniProt Q86W50, residues 1-562; also called full-length METTL16; source: E. coli BL21 Gold, purified (HisTrap HP, TEV cleavage, SEC); not shown: His6, N-terminal, cleaved
For the protein B1, the “stoichiometry N” value amounted to 2.

What is called stoichiometry N is a count of units in the complex or per binding partner.

The values are drawn from publication PMC5871880, “Structural insights into the RNA methyltransferase domain of METTL16” (Scientific Reports, 2018).
